Test results taken from the supplement of paper PMC9170038.

Columns and labels:
[1] = test system: MS2 coat protein; assay: apparent KD of MS2 coat protein, switch ON state; designed switch direction (-1 OFF switch, 1 ON switch): 1; higher = weaker reporter binding; settings: FMN input: 0 or 200 uM; Eterna round: R93 (includes R88 designs)
Method in brief: (§1)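 The buffer was 100 mM Tris-HCl pH 7.5 with 80 mM KCl and 4 mM MgCl2, used without or with constant ligand. In it, RNA switches transcribed on-chip from Illumina sequencing clusters were titrated with SNAP-549-labelled MS2 coat protein in twofold steps from 0.7 or 1.5 nM to 3 µM. Apparent KD for each design is the median of its normalised cluster binding-curve fits.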

[2] = test system: MS2 coat protein; assay: apparent KD of MS2 coat protein, switch OFF state (with FMN for OFF switches, without FMN for ON switches); designed switch direction (-1 OFF switch, 1 ON switch): 1; higher = weaker reporter binding; settings: FMN input: 0 or 200 uM; Eterna round: R93 (includes R88 designs)
Method in brief: as §1

Row | Sequence | apparent KD of MS2 coat protein [1] | apparent KD of MS2 coat protein [2]
1 | AGGAAACAUGAGGAUCACCCAUGUAAAAAUAUGGGAGGAUAUACUAGAAGAAACAAAAUAGUAGAAGGCCUAAAAA [75%, Ex sub1, 26] | 17.4 nM | 47.4 nM
2 | GGAGCCGGUACUGAGGAUAUUCAUAUUAAAACAUGAGGAUCACCCAUGUAGGCCAGAAAGCCUUGGGAGAAGGCAGAUCGGCUCG [Bienuslete] | 17.8 nM | 126 nM
3 | AGGAAACAUGAGGAUCACCCAUGUAAAAAAUAGGGAGGAUAUACUAGAAGAAACAAAAUAGUAGAAGGUCCAAAAA [75%, Ex sub1, 24] | 18.4 nM | 27.6 nM
4 | AAAAAACAUGAGGAUCACCCAUGUGAGAACAUGGGAGGAUAUACGAAGACGAAAGUCGAAGUAGAAGGCCUAAAAG [Garnet 79] | 994 nM | 91.2 nM
5 | UGGAGACAUGAGGAUCACCCAUGUGAGAAGAGGCGAGGAUAUCGAAAGAAAGAAGAGAAACGAGAAGGCGCGAGCA [salish99-SS1-040] | 25.9 nM | 40.2 nM
6 | GAAAAACAUGAGGAUCACCCAUGUGUAAAUAUGGGAGGAUAUACAAAGACGGAAGUCAAAGUAGAAGGCCUAAAAG [Mat - Same State 1 - Eli mod - D11] | 94.3 nM | 111 nM
7 | AAUACACAUGGUCAGGAUAUCGCAGCUAGGACAUGAGGAUCACCCAUGUCGCACGUAACCGUAACCGAGAAGGGACAGGGUGACC [JR_SS002_Sub409] | 36.9 nM | 15.2 nM
8 | AUAACACAUGAGGAUCACCCAUGUAGAAACAAGUCAGGAUAUCCGAUCCACAUGUGAAAAGGAGAAGGGACACUAA [SS 1 Tesla 6] | 37.4 nM | 146 nM
9 | AAAUAAAGGACUGAGGAUAUACCACAUGAAACAUGAGGAUCACCCAUGUAGAAAUACAGAGGGUGGUAGAAGGCAGUCCACAAAC [Same State 2.5h ( so lets mod hyphema)] | 30.1 nM | 57.2 nM
10 | AGAAAUAAAGGAGAGGAUAUCCAAAAGAAAACAUGAGGAUCACCCAUGUAAAAGAAAAUAAAAUGGGAGAAGGCUUCAAAUAAGA [Starry modified V4] | 52.3 nM | 46.4 nM
11 | GACAAACAUGAGGAUCACCCAUGUAGACAUAUGGGAGGAUAUACACAGACGAAAGUCACAGUAGAAGGCCUACAAG [77%, Mat - Mod of Eli - With 5 more C's] | 26.9 nM | 82.4 nM
12 | UAUAAACAUGAGGAUCACCCAUGUAGAAAUAUGGGAGGAUAUACAAAGACGAAAGUCAAAGUAGAAGGCCUAAUAU [Mat - Same State 1 - Mod - D155] | 18.9 nM | 55.3 nM
13 | AAAUAGUGCCUGGAGGAUAUGUCGCAUGACACAUGAGGAUCACCCAUGUGGUAACACAGAGGGUGGCAGAAGGCUGGGUGCAAAC [Mod 4 of Pariah 6 (Round1) by Hyphema] | 27.4 nM | 260 nM
14 | GACUGACAUGAGGAUCACCCAUGUAUUCAAACAUGAGGAUAUAUAACACGUCAUCGACGGAUAGAAGGCAUAGAUG [JR_SS001_Sub1209] | 117 nM | 162 nM
15 | AGAAAUAAAUGAGAGGAUAUCCAAAAGAAAACAUGAGGAUCACCCAUGUAAAAGAAAAUAAAAUGGGAGAAGGCUCAAAAUAAAG [80%, More Helter Skelter 2] | 23.5 nM | 58.5 nM
16 | AAAAAACAUGAGGAUCACCCAUGUGAAAAUAUGGGAGGAUAUACAAACACGAAAGUGAAAGUAGAAGGCCUAAAAA [SS! MT 16] | 19.7 nM | 167 nM
17 | GAAAAACAUGAGGAUCACCCAUGUAGAAAUAUGGGAGGAUAUACAAAGACGAGAGUCAAAGUAGAAGGCCUAAAAG [Mat - Same State 1 - Eli mod - D9] | 28.4 nM | 86.7 nM
18 | GUGGUGCAGGUACAGGAUAUGUUGCUCGUAACAUGAGGAUCACCCAUGUACCUAUGAGAUUAAAUGCAGAAGGGUGCACACCACG [Edtiditele] | 28.4 nM | 208 nM
19 | AGGAGACAUGAGGAUCACCCAUGUGAGAAGAGGCGAGGAUAUCGAAAGAAAGAAGAGAAACGAGAAGGCGCGAGGG [salish99-SS1-027] | 26.9 nM | 39.2 nM

Row | Sequence | apparent KD of MS2 coat protein [1] | apparent KD of MS2 coat protein [2]
20 | AACAAUCUAUCUGAGGAUAUCAUGUCAAAGACAUGAGGAUCACCCAUGUGCAGGAAAACUGCUCAUGAGAAGGCAGAUAGAUUGA [SS2: 1110] | 464 nM | 167 nM
21 | AAAACACAUGAGGAUCACCCAUGUGCCUAACUCGCAGGAUAUUUCUCGAUUAAAUGAUAGGAAGAAGGGUGAUAAA [Nob's Hobby 37 - Jieux - Same State 1] | 110 nM | 39.4 nM
22 | AACAAUCUAUCUGAGGAUAUAUGUCGAAAGACAUGAGGAUCACCCAUGUGAAAACAUGAAAAAACAUAGAAGGCAGAUAGAUUGA [SS2: 1136] | 28.5 nM | 54.3 nM
23 | AAAAAACAUGAGGAUCACCCAUGUCAAAAGACGUGAGGAUAUGUACAGACUUCGGUCUGUACAGAAGGCACGUAAA [SS1 - 1039] | 15.7 nM | 25.7 nM
24 | CGGAGACAUGAGGAUCACCCAUGUGAGAAGAGGCGAGGAUAUCGAAAGAAAGAAGAGAAAUGAGAAGGCGCGAGCC [salish99-SS1-081] | 36.2 nM | 39 nM
25 | AUGAAAGUAACACAGGAUAUCCAGGAUACAACAUGAGGAUCACCCAUGUACAUACGAACGUAUAAGGAGAAGGGUGGAUGAUCUUC [ss2-2] | 50.7 nM | 59.3 nM
26 | GACAAACAUGAGGAUCACCCAUGUAGACAUAUGGGAGGAUAUACACAGACGAAAGUCAAAGUAGAAGGCCUACAAG [77%, Mat - Mod of Eli - With 4 more C's] | 29.3 nM | 91.3 nM
27 | GAAAAACAUGAGGAUCACCCAUGUAAGAUAAACACAGGAUAUGCGAAAAUAAAUAAAUAAGCAGAAGGGUGAAAAG [Mat - Same State 1 - Tesla mod - 78] | 25.7 nM | 37.4 nM
28 | UAAGACGUGCAUCAGGAUAUGUUCCGAGGCACAUGAGGAUCACCCAUGUGGACGAAGCCUCGGGCACAGAAGGGAUCACUCAGAC [Laarma] | 17.2 nM | 20.4 nM
29 | AAGAAACAUGAGGAUCACCCAUGUAAGAAUAUGGGAGGAUAUGCGAAAAGAAACAAAGAAGCAGAAGGCCUAAGAA [75%, Ex5 sub 1, 5] | 26.6 nM | 57.6 nM
30 | AACUAACAUGAGGAUCACCCAUGUAUUCAAACAUGAGGAUAUAUAACACAUCAUCGACGGAUAGAAGGCAUAAAUA [JR_SS001_Sub1206] | 92 nM | 86.6 nM
31 | AAUACACAUGGUCAGGAUAUCGCAGCUAGGACAUGAGGAUCACCCAUGUCGCAUGUAACUGUAACCGAGAAGGGACAGGGUGAUC [JR_SS002_Sub411] | 123 nM | 92.6 nM
32 | AGAGUAAACAGAGAGGAUAUCCAAUAGAAAACAUGAGGAUCACCCAUGUGAAAGAUAAUAAAAUGGGAGAAGGCUCACAAUAAGA [Topaz 43] | 24.6 nM | 49.4 nM
33 | GACUGACAUGAGGAUCACCCAUGUAUUCGAGCAUGAGGAUAUAUGACACGUCAUCGACGGAUAGAAGGCAUGGAUG [JR_SS001_Sub1211] | 232 nM | 208 nM
34 | ACUACACAUGAGGAUCACCCAUGUCAGGUGGGACUAGGAUAUUAUAAACCAGAGUAAUUAUAAGAAGGAGUAGAAA [JR_SS001_Sub307] | 32.6 nM | 42.2 nM
35 | UAGAGACAUGAGGAUCACCCAUGUAGGAUUAUGGGAGGAUAUACAAAGACGAGAGUCAGAGUAGAAGGCCUAGGAG [salish99-ss1-135(!)] | 22 nM | 64.9 nM
36 | AAUACACAUGGUCAGGAUAUCGCAGCUAGGACAUGAGGAUCACCCAUGUCGCACGUAACCGUAACCGAGAAGGGACAGGGUGAUC [JR_SS002_Sub410] | 21.8 nM | 34 nM
37 | UUCUCCACUAGCAAGGAUAUCUAAAACUAAACAUGAGGAUCACCCAUGUGACGACCACACGUAUCAGAGAAGGUGCAGGGUGUAU [JR_SS002_Sub308] | 45.4 nM | 42.5 nM
38 | UAGAGACAUGAGGAUCACCCAUGUAGGAUUAUGGGAGGAUAUACAAAGACGAGAGUCAGAGUAGAAGGCCUAGGAA [salish99-ss1-133(!)] | 24.9 nM | 74.6 nM
